Test results: patent US20260028403A1 (Zymeworks, published 2026)

Legend:
[1] = target: T1, CD28 on primary human T cells (human, UniProt P10747 19-220); assay: cell-based or functional assay
[2] = target: T1, CD28 on primary human T cells; assay: cell-based or functional assay; remark: listed apart in the source
[3] = target: T2, Recombinant human/cynomolgus/rhesus macaque CD28 mouse IgG2a Fc fusion protein (Acro Biosystems) (human/cynomolgus/rhesus macaque, UniProt P10747 19-152); assay: SPR, in-format anti-CD28 variants, huCD28
T2 construct: bought; also called huCD28

[4] = target: T3, Recombinant human CD3 epsilon/delta heterodimer, his tag protein (Acro Biosystems) (human, UniProt P07766 23-126; P04234 22-105); assay: SPR Biacore T200, CD3 e/d-his on CM5, construct injected, 1:1 model;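 also: measured at 25 °C in HEPES-buffered saline with EDTA and Tween 20 at pH 7.4, values are means of three independent runs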
T3 construct: bought

[5] = target: T2, Recombinant human/cynomolgus/rhesus …; assay: SPR Biacore T200, CD28-mIgG2a Fc on CM5, construct injected, 1:1 model;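 also: fc fusion captured by amine coupling, run at 25 °C in HEPES buffer pH 7.4, association 140-500 s then dissociation 600-1200 s, values averaged over three independent runs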

Binder | IL-2 maximum cytokine, T cells alone [2] | IL-2 maximum cytokine, T cells with SNU 601 cells [2] | TNFa maximum cytokine, T cells alone [2] | TNFa maximum cytokine, T cells with SNU 601 cells [2] | Fold-change from WT [3] | Kd [3] | koff [3] | kon [3] | Kd [4] | koff [4] | kon [4] | Kd [5] | koff [5] | kon [5] | IC50, T cell-dependent cytotoxicity on SNU 601 [1] | Maximum Killing (%), SNU 601 [1]
v37683 (trispecific antibody, human IgG1, kappa, L234A L235A, also called v37638 format, CD28 VH P1058A) heavy 1: not shown heavy 2: QVQLVESGGGLVQPGGSLRLSCSVSGIDLSSNPMIWVRQAPGKGLQYIGIIDTDGSTYYADWAKGRFTISKDSTTVYLQINSPRAEDTAVYYCARRLHGSSNGYYDDLWGQGTLVTVSSGGGGSGGGGSGGGGSGGGGSDGQMTQSPSSVSASVGDRVTITCQASQSIYSYLSWYQQKPGQRPKLLIYKASTLASGVPSRFSGSGSGTDFTLTISSVQPEDFATYYCQQGYTVTNVDKNTFGGGTKVEIKAAEPKSSDKTHTCPPCPAPEAAGGPSVFLFPPKPKDTLMISRTPEVTCVVVSVSHEDPEVKFNWYVDGVEVHNAKTKPREEQYNSTYRVVSVLTVLHQDWLNGKEYKCKVSNKALPAPIEKTISKAKGQPREPQVYVLPPSRDELTKNQVSLLCLVKGFYPSDIAVEWESNGQPENNYLTWPPVLDSDGSFFLYSKLTVDKSRWQQGNVFSCSVMHEALHNHYTQKSLSLSPG light: DIQMTQSPSSLSASVGDRVTITCRASESVEYYVTSLMQWYQQKPGKAPKLLIYAASNVDSGVPSRFSGSGSGTDFTLTISSLQPEDIATYYCQQSRKVPFTFGGGTKVEIKRTVAAPSVFIFPPSDEQLKSGTASVVCLLNNFYPREAKVQWKVDNALQSGNSQESVTEQDSKDSTYSLSSTLTLSKADYEKHKVYACEVTHQGLSSPVTKSFNRGEC | 82.9 pg/mL | 4030 pg/mL | 25 pg/mL | 513 pg/mL | 2.2 fold | 48.6 nM | 0.00466 s⁻¹ | 95800 M⁻¹ s⁻¹ |  |  |  |  |  |  | 0.00025 nM | 88.6%
v37639 (trispecific antibody, human IgG1, kappa, L234A L235A, Het Fc, FcKO; also called Cldn18.2xCD28xCD3 trispecific) heavy 1: not shown heavy 2: QVQLVESGGGLVQPGGSLRLSCSVSGIDLSSNPMIWVRQAPGKGLQYIGIIDTDGSTYYADWAKGRFTISKDSTTVYLQINSPRAEDTAVYYCARRLHGSSNGYYDDLWGQGTLVTVSSGGGGSGGGGSGGGGSGGGGSDGQMTQSPSSVSASVGDRVTITCQASQSIYSYLSWYQQKPGQRPKLLIYKASTLASGVPSRFSGSGSGTDFTLTISSVQPEDFATYYCQQGYTVTNVDKNTFGGGTKVEIKAAEPKSSDKTHTCPPCPAPEAAGGPSVFLFPPKPKDTLMISRTPEVTCVVVSVSHEDPEVKFNWYVDGVEVHNAKTKPREEQYNSTYRVVSVLTVLHQDWLNGKEYKCKVSNKALPAPIEKTISKAKGQPREPQVYVLPPSRDELTKNQVSLLCLVKGFYPSDIAVEWESNGQPENNYLTWPPVLDSDGSFFLYSKLTVDKSRWQQGNVFSCSVMHEALHNHYTQKSLSLSPG light: DIQMTQSPSSLSASVGDRVTITCRASESVEYYVTSLMQWYQQKPGKAPKLLIYAASNVDSGVPSRFSGSGSGTDFTLTISSLQPEDIATYYCQQSRKVPFTFGGGTKVEIKRTVAAPSVFIFPPSDEQLKSGTASVVCLLNNFYPREAKVQWKVDNALQSGNSQESVTEQDSKDSTYSLSSTLTLSKADYEKHKVYACEVTHQGLSSPVTKSFNRGECGGGGSGNFMLTQPHSVSESPGKTVTISCKRNTGNIGSNYVNWYQQHEGSSPTTIIYRNDKRPDGVSDRFSGSIDRSSKSASLTISNLKTEDEADYFCQSYSSGFIFGGGTKLTVLGGGGSGGGGSGGGGSGGGGSEVQLVESGGGLVQPGGSLRLSCAASGVTFNYYGMSWIRQAPGKGLEWVASITSSGGRIYYPDSVKGRFTISRENTQKTLYLQMNSLRAEDTAVYYCTLDGRDGWVAYWGQGTLVTVSS |  |  |  |  |  |  |  |  | 492 nM | 0.0144 s⁻¹ | 29200 M⁻¹ s⁻¹ | 23.9 nM | 0.00201 s⁻¹ | 84100 M⁻¹ s⁻¹ |  | 

The remaining binders from weak to strong by Kd [4], led by results:

IL-2 maximum cytokine, T cells alone [2] | IL-2 maximum cytokine, T cells with SNU 601 cells [2] | TNFa maximum cytokine, T cells alone [2] | TNFa maximum cytokine, T cells with SNU 601 cells [2] | Fold-change from WT [3] | Kd [3] | koff [3] | kon [3] | Kd [4] | koff [4] | kon [4] | Kd [5] | koff [5] | kon [5] | Binder | IC50, T cell-dependent cytotoxicity on SNU 601 [1] | Maximum Killing (%), SNU 601 [1]
 |  |  |  |  |  |  |  | 225 nM | 0.0134 s⁻¹ | 60800 M⁻¹ s⁻¹ | 31.8 nM | 0.00206 s⁻¹ | 66500 M⁻¹ s⁻¹ | v37641 (trispecific antibody, human IgG1, kappa, L234A L235A, second heavy chain is Fc only; Het Fc, FcKO; also called Cldn18.2xCD28xCD3 trispecific) heavy 1: QVQLVESGGGLVQPGGSLRLSCSVSGIDLSSNPMIWVRQAPGKGLQYIGIIDTDGSTYYADWAKGRFTISKDSTTVYLQINSPRAEDTAVYYCARRLHGSSNGYYDDLWGQGTLVTVSSGGGGSGGGGSGGGGSGGGGSDGQMTQSPSSVSASVGDRVTITCQASQSIYSYLSWYQQKPGQRPKLLIYKASTLASGVPSRFSGSGSGTDFTLTISSVQPEDFATYYCQQGYTVTNVDKNTFGGGTKVEIKGGGGSGQVQLQESGPGLVKPSETLSLTCAVSGFSLTSYGVHWIRQPPGKGLEWLGVIWPGGGTNFNSALMSRLTISEDTSKNQVSLKLSSVTAADTAVYYCARDRAYGNYLYAMDYWGQGTLVTVSSASTKGPSVFPLAPSSKSTSGGTAALGCLVKDYFPEPVTVSWNSGALTSGVHTFPAVLQSSGLYSLSSVVTVPSSSLGTQTYICNVNHKPSNTKVDKKVEPKSCDKTHTCPPCPAPEAAGGPSVFLFPPKPKDTLMISRTPEVTCVVVSVSHEDPEVKFNWYVDGVEVHNAKTKPREEQYNSTYRVVSVLTVLHQDWLNGKEYKCKVSNKALPAPIEKTISKAKGQPREPQVYVYPPSRDELTKNQVSLTCLVKGFYPSDIAVEWESNGQPENNYKTTPPVLDSDGSFALVSKLTVDKSRWQQGNVFSCSVMHEALHNHYTQKSLSLSPGGGGGSGNFMLTQPHSVSESPGKTVTISCKRNTGNIGSNYVNWYQQHEGSSPTTIIYRNDKRPDGVSDRFSGSIDRSSKSASLTISNLKTEDEADYFCQSYSSGFIFGGGTKLTVLGGGGSGGGGSGGGGSGGGGSEVQLVESGGGLVQPGGSLRLSCAASGVTFNYYGMSWIRQAPGKGLEWVASITSSGGRIYYPDSVKGRFTISRENTQKTLYLQMNSLRAEDTAVYYCTLDGRDGWVAYWGQGTLVTVSS heavy 2: EPKSSDKTHTCPPCPAPEAAGGPSVFLFPPKPKDTLMISRTPEVTCVVVSVSHEDPEVKFNWYVDGVEVHNAKTKPREEQYNSTYRVVSVLTVLHQDWLNGKEYKCKVSNKALPAPIEKTISKAKGQPREPQVYVLPPSRDELTKNQVSLLCLVKGFYPSDIAVEWESNGQPENNYLTWPPVLDSDGSFFLYSKLTVDKSRWQQGNVFSCSVMHEALHNHYTQKSLSLSPG light: DIQMTQSPSSLSASVGDRVTITCRASESVEYYVTSLMQWYQQKPGKAPKLLIYAASNVDSGVPSRFSGSGSGTDFTLTISSLQPEDIATYYCQQSRKVPFTFGGGTKVEIKRTVAAPSVFIFPPSDEQLKSGTASVVCLLNNFYPREAKVQWKVDNALQSGNSQESVTEQDSKDSTYSLSSTLTLSKADYEKHKVYACEVTHQGLSSPVTKSFNRGEC |  | 
 |  |  |  |  |  |  |  | 160 nM | 0.021 s⁻¹ | 134000 M⁻¹ s⁻¹ | 434 nM | 0.0132 s⁻¹ | 30400 M⁻¹ s⁻¹ | v37636 (trispecific antibody, human IgG1, lambda, L234A L235A, second heavy chain is Fc only; Het Fc, FcKO; also called Cldn18.2xCD3xCD28 trispecific) heavy 1: QVQLVESGGGLVQPGGSLRLSCSVSGIDLSSNPMIWVRQAPGKGLQYIGIIDTDGSTYYADWAKGRFTISKDSTTVYLQINSPRAEDTAVYYCARRLHGSSNGYYDDLWGQGTLVTVSSGGGGSGGGGSGGGGSGGGGSDGQMTQSPSSVSASVGDRVTITCQASQSIYSYLSWYQQKPGQRPKLLIYKASTLASGVPSRFSGSGSGTDFTLTISSVQPEDFATYYCQQGYTVTNVDKNTFGGGTKVEIKGGGGSGEVQLVESGGGLVQPGGSLRLSCAASGVTFNYYGMSWIRQAPGKGLEWVASITSSGGRIYYPDSVKGRFTISRENTQKTLYLQMNSLRAEDTAVYYCTLDGRDGWVAYWGQGTLVTVSSASTKGPSVFPLAPSSKSTSGGTAALGCLVKDYFPEPVTVSWNSGALTSGVHTFPAVLQSSGLYSLSSVVTVPSSSLGTQTYICNVNHKPSNTKVDKKVEPKSCDKTHTCPPCPAPEAAGGPSVFLFPPKPKDTLMISRTPEVTCVVVSVSHEDPEVKFNWYVDGVEVHNAKTKPREEQYNSTYRVVSVLTVLHQDWLNGKEYKCKVSNKALPAPIEKTISKAKGQPREPQVYVYPPSRDELTKNQVSLTCLVKGFYPSDIAVEWESNGQPENNYKTTPPVLDSDGSFALVSKLTVDKSRWQQGNVFSCSVMHEALHNHYTQKSLSLSPGGGGGSGDIQMTQSPSSLSASVGDRVTITCRASESVEYYVTSLMQWYQQKPGKAPKLLIYAASNVDSGVPSRFSGSGSGTDFTLTISSLQPEDIATYYCQQSRKVPFTFGGGTKVEIKGGGGSGGGGSGGGGSGGGGSQVQLQESGPGLVKPSETLSLTCAVSGFSLTSYGVHWIRQPPGKGLEWLGVIWPGGGTNFNSALMSRLTISEDTSKNQVSLKLSSVTAADTAVYYCARDRAYGNYLYAMDYWGQGTLVTVSS heavy 2: EPKSSDKTHTCPPCPAPEAAGGPSVFLFPPKPKDTLMISRTPEVTCVVVSVSHEDPEVKFNWYVDGVEVHNAKTKPREEQYNSTYRVVSVLTVLHQDWLNGKEYKCKVSNKALPAPIEKTISKAKGQPREPQVYVLPPSRDELTKNQVSLLCLVKGFYPSDIAVEWESNGQPENNYLTWPPVLDSDGSFFLYSKLTVDKSRWQQGNVFSCSVMHEALHNHYTQKSLSLSPG light: NFMLTQPHSVSESPGKTVTISCKRNTGNIGSNYVNWYQQHEGSSPTTIIYRNDKRPDGVSDRFSGSIDRSSKSASLTISNLKTEDEADYFCQSYSSGFIFGGGTKLTVLGQPKAAPSVTLFPPSSEELQANKATLVCLISDFYPGAVTVAWKADSSPVKAGVETTTPSKQSNNKYAASSYLSLTPEQWKSHRSYSCQVTHEGSTVEKTVAPTECS |  | 
 |  |  |  |  |  |  |  | 106 nM | 0.0129 s⁻¹ | 121000 M⁻¹ s⁻¹ | 61.4 nM | 0.00692 s⁻¹ | 113000 M⁻¹ s⁻¹ | v37637 (trispecific antibody, human IgG1, lambda, L234A L235A, Het Fc, FcKO; also called Cldn18.2xCD3xCD28 trispecific) heavy 1: not shown heavy 2: QVQLVESGGGLVQPGGSLRLSCSVSGIDLSSNPMIWVRQAPGKGLQYIGIIDTDGSTYYADWAKGRFTISKDSTTVYLQINSPRAEDTAVYYCARRLHGSSNGYYDDLWGQGTLVTVSSGGGGSGGGGSGGGGSGGGGSDGQMTQSPSSVSASVGDRVTITCQASQSIYSYLSWYQQKPGQRPKLLIYKASTLASGVPSRFSGSGSGTDFTLTISSVQPEDFATYYCQQGYTVTNVDKNTFGGGTKVEIKGGGGSGEVQLVESGGGLVQPGGSLRLSCAASGVTFNYYGMSWIRQAPGKGLEWVASITSSGGRIYYPDSVKGRFTISRENTQKTLYLQMNSLRAEDTAVYYCTLDGRDGWVAYWGQGTLVTVSSASTKGPSVFPLAPSSKSTSGGTAALGCLVKDYFPEPVTVSWNSGALTSGVHTFPAVLQSSGLYSLSSVVTVPSSSLGTQTYICNVNHKPSNTKVDKKVEPKSCDKTHTCPPCPAPEAAGGPSVFLFPPKPKDTLMISRTPEVTCVVVSVSHEDPEVKFNWYVDGVEVHNAKTKPREEQYNSTYRVVSVLTVLHQDWLNGKEYKCKVSNKALPAPIEKTISKAKGQPREPQVYVLPPSRDELTKNQVSLLCLVKGFYPSDIAVEWESNGQPENNYLTWPPVLDSDGSFFLYSKLTVDKSRWQQGNVFSCSVMHEALHNHYTQKSLSLSPG light: NFMLTQPHSVSESPGKTVTISCKRNTGNIGSNYVNWYQQHEGSSPTTIIYRNDKRPDGVSDRFSGSIDRSSKSASLTISNLKTEDEADYFCQSYSSGFIFGGGTKLTVLGQPKAAPSVTLFPPSSEELQANKATLVCLISDFYPGAVTVAWKADSSPVKAGVETTTPSKQSNNKYAASSYLSLTPEQWKSHRSYSCQVTHEGSTVEKTVAPTECS |  | 
